Experimental data as given in patent US20230103583A1 (NORTHWESTERN UNIVERSITY, published 2023).

Biological target: Tie2 receptor on HUVEC (human, UniProt Q02763 23-1124)
Assay: cell-based or functional assay

Chain of Tie2 receptor on HUVEC (Q02763 23-1124): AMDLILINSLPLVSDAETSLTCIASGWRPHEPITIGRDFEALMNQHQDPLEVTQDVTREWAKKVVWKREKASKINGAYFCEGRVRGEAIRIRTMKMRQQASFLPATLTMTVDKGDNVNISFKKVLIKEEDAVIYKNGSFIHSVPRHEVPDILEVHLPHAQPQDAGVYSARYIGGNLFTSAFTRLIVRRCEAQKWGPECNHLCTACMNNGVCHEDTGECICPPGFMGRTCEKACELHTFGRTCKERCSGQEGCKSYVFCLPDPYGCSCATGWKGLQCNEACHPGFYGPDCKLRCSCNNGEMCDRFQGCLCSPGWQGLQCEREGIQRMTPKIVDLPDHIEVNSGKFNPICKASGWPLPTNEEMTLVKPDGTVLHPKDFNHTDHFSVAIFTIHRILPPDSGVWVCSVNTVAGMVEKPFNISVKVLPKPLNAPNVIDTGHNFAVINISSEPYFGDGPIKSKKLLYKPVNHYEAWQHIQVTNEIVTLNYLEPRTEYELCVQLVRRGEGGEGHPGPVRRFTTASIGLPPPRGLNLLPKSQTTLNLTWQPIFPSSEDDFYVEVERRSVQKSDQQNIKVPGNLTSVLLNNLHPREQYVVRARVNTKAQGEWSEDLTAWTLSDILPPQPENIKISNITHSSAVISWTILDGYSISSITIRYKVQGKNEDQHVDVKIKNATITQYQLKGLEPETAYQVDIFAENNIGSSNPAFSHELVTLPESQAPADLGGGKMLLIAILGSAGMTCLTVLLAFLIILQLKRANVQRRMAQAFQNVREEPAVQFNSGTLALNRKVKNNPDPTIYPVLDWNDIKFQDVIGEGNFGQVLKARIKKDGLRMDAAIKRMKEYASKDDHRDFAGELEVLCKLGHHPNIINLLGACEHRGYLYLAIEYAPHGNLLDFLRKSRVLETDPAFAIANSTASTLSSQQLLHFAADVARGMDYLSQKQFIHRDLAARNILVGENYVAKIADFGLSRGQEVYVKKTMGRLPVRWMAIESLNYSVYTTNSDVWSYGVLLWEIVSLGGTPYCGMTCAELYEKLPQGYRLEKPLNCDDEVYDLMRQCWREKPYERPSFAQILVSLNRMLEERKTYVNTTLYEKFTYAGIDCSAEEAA

- phospho-AKT (pAKT) EC50 in HUVEC treated for 20 minutes: 87 ng/mL
B1: ANG1-C4BP (ligand)
chain: KPFRDCADVYQAGFNKSGIYTIYINNMPEPKKVFCNMDVNGGGWTVIQHREDGSLDFQRGWKEYKMGFGNPSGEYWLGNEFIFAITSQRQYMLRIELMDWEGNRAYSQYDRFHIGNEKQNYRLYLKGHTGTAGKQSSLILHGADFSTKDADNDNCMCKCALMLTGGWWFDACGPSNLNGMFYTAGQNHGKLNGIKWHYFKGPSYSLRSTTMMIRPLDFGGGGSETPEGCEQVLTGKRLMQCLPNPEDVKMALEVYKLSLEIEQLELQRDSARQSTLDKELHHHHHH
